# Assay results: patent US20250019439A1 (Adimab, published 2025)
# B1: ADI-34131 (antibody, V domains shown)
# VH: QVQLVQSGAEVKKPGSSVKVSCKASGGTFSSYAISWVRQAPGQGLEWMGGIIPIFGTANYAQKFQGRVTITADESTSTAYMELSSLRSEDTAVYYCARGAPNYYGSGGYDDGWFDPWGQGTLVTVSS
# VL: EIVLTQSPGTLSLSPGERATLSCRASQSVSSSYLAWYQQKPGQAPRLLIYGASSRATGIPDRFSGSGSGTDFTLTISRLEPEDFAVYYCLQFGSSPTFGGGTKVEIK
# notes: anti-ID IgG
# Tests used:
# ADI-22523 IgG = target: T1, ADI-22523 IgG; assay: BLI; tip anti-ID IgG, solution ADI-22523 IgG
# T1 construct: anti-CD3 IgG
# Method in brief: (§1)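 Sensors carrying captured anti-ID IgG were equilibrated 30 min in assay buffer before a 60 s baseline. Equilibrium KD was taken as koff/kon from a 1:1 model.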
# ADI-67450 = target: T2, ADI-67450; assay: SPR Carterra avidity, yeast anti-ID
# T2 construct: anti-CD3 antibody made in CHO cells, captured by anti-human Fc
# Method in brief: (§2)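 Surface plasmon resonance on a Carterra LSA at 25° C, HBSTE buffer. The anti-CD3 antibody is Fc-captured (100 nM, 5 min) and the anti-idiotype antibody serves as analyte; dissociation lasts 300s and the surface is regenerated with 10 mM glycine pH 1.7.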
# CTL-62223 = target: T3, CTL-62223; assay: SPR Carterra avidity, yeast anti-ID
# T3 construct: also called mosunetuzumab
# Method in brief: as §2
# ADI-48587 = target: T4, ADI-48587; assay: SPR Carterra avidity, yeast anti-ID
# T4 construct: pH-dependent anti-CD3 antibody made in CHO cells
# Method in brief: as §2
# ADI-50024 = target: T5, ADI-50024; assay: SPR Carterra avidity, yeast anti-ID
# T5 construct: anti-CD3 antibody made in CHO cells, captured by anti-human Fc
# Method in brief: as §2
# ADI-70326 = target: T6, ADI-70326; assay: SPR Carterra avidity, yeast anti-ID
# T6 construct: anti-CD3 antibody made in CHO cells, captured by anti-human Fc
# Method in brief: as §2
# ADI-26913 IgG = target: T7, ADI-26913 IgG; assay: SPR Carterra avidity, yeast anti-ID
# T7 construct: anti-CD3 IgG
# Method in brief: as §2
# ADI-74966 = target: T8, ADI-74966; assay: SPR Carterra avidity, yeast anti-ID
# T8 construct: pH-dependent anti-CD3 antibody made in CHO cells
# Method in brief: as §2
# ADI-26916 IgG = target: T9, ADI-26916 IgG; assay: SPR Carterra avidity, yeast anti-ID
# T9 construct: anti-CD3 IgG
# Method in brief: as §2
# ADI-26906 IgG = target: T10, ADI-26906 IgG; assay: SPR Carterra avidity, yeast anti-ID
# T10 construct: anti-CD3 IgG
# Method in brief: as §2
# ADI-74967 = target: T11, ADI-74967; assay: SPR Carterra avidity, yeast anti-ID
# T11 construct: pH-dependent anti-CD3 antibody made in CHO cells
# Method in brief: as §2
# ADI-74968 = target: T12, ADI-74968; assay: SPR Carterra avidity, yeast anti-ID
# T12 construct: pH-dependent anti-CD3 antibody made in CHO cells
# Method in brief: as §2
# ADI-70330 = target: T13, ADI-70330; assay: SPR Carterra avidity, yeast anti-ID
# T13 construct: anti-CD3 antibody made in CHO cells, captured by anti-human Fc
# Method in brief: as §2
# ADI-76360 = target: T14, ADI-76360; assay: SPR Carterra avidity, yeast anti-ID
# T14 construct: anti-CD3 antibody made in CHO cells, captured by anti-human Fc
# Method in brief: as §2
# ADI-76357 = target: T15, ADI-76357; assay: SPR Carterra avidity, yeast anti-ID
# T15 construct: anti-CD3 antibody made in CHO cells, captured by anti-human Fc
# Method in brief: as §2
# ADI-26919 = target: T16, ADI-26919; assay: SPR Carterra avidity, yeast anti-ID
# T16 construct: anti-CD3 antibody made in CHO cells, captured by anti-human Fc
# Method in brief: as §2
# ADI-70327 = target: T17, ADI-70327; assay: SPR Carterra avidity, yeast anti-ID
# T17 construct: anti-CD3 antibody made in CHO cells, captured by anti-human Fc
# Method in brief: as §2
# ADI-76358 = target: T18, ADI-76358; assay: SPR Carterra avidity, yeast anti-ID
# T18 construct: anti-CD3 antibody made in CHO cells, captured by anti-human Fc
# Method in brief: as §2
# ADI-22523 Fab = target: T19, ADI-22523 Fab; assay: BLI; tip anti-ID IgG, solution ADI-22523 Fab
# T19 construct: anti-CD3 Fab by papain digestion of the IgG
# Method in brief: as §1
# ADI-26921 IgG = target: T20, ADI-26921 IgG; assay: SPR Carterra avidity, yeast anti-ID, *koff limit
# T20 construct: anti-CD3 IgG
# Method in brief: as §2
# ADI-26943 = target: T21, ADI-26943; assay: SPR Carterra avidity, yeast anti-ID, *koff limit
# T21 construct: anti-CD3 antibody made in CHO cells, captured by anti-human Fc
# Method in brief: as §2
# ADI-76362 = target: T22, ADI-76362; assay: SPR Carterra avidity, yeast anti-ID, *koff limit
# T22 construct: anti-CD3 antibody made in CHO cells, captured by anti-human Fc
# Method in brief: as §2
# ADI-26909 = target: T23, ADI-26909; assay: SPR Carterra avidity, yeast anti-ID, *koff limit
# T23 construct: anti-CD3 antibody made in CHO cells, captured by anti-human Fc
# Method in brief: as §2
# ADI-26920 IgG = target: T24, ADI-26920 IgG; assay: SPR Carterra avidity, yeast anti-ID, *koff limit
# T24 construct: anti-CD3 IgG
# Method in brief: as §2
# ADI-76361 = target: T25, ADI-76361; assay: SPR Carterra avidity, yeast anti-ID, *koff limit
# T25 construct: anti-CD3 antibody made in CHO cells, captured by anti-human Fc
# Method in brief: as §2
# ADI-67447 = target: T26, ADI-67447; assay: SPR Carterra avidity, yeast anti-ID, *koff limit
# T26 construct: anti-CD3 antibody made in CHO cells, captured by anti-human Fc
# Method in brief: as §2
# ADI-26924 = target: T27, ADI-26924; assay: SPR Carterra avidity, yeast anti-ID, *koff limit
# T27 construct: anti-CD3 antibody made in CHO cells, captured by anti-human Fc
# Method in brief: as §2
# ADI-67445 = target: T28, ADI-67445; assay: SPR Carterra avidity, yeast anti-ID, *koff limit
# T28 construct: anti-CD3 antibody made in CHO cells, captured by anti-human Fc
# Method in brief: as §2
# ADI-76359 = target: T29, ADI-76359; assay: SPR Carterra avidity, yeast anti-ID, *koff limit
# T29 construct: anti-CD3 antibody made in CHO cells, captured by anti-human Fc
# Method in brief: as §2
# ADI-26912 = target: T30, ADI-26912; assay: SPR Carterra, yeast anti-ID
# T30 construct: anti-CD3 antibody made in CHO cells, captured by anti-human Fc
# Method in brief: as §2
# ADI-48576 = target: T31, ADI-48576; assay: SPR Carterra, yeast anti-ID
# T31 construct: pH-dependent anti-CD3 antibody made in CHO cells
# Method in brief: as §2
# CTL-62228 = target: T32, CTL-62228; assay: SPR Carterra, yeast anti-ID
# T32 construct: also called glofitamab
# Method in brief: as §2
# ADI-48650 = target: T33, ADI-48650; assay: SPR Carterra, yeast anti-ID
# T33 construct: pH-dependent anti-CD3 antibody made in CHO cells
# Method in brief: as §2
# CTL-62240 = target: T34, CTL-62240; assay: SPR Carterra, yeast anti-ID
# T34 construct: also called ONO-4685
# Method in brief: as §2
# CTL-62227 = target: T35, CTL-62227; assay: SPR Carterra, yeast anti-ID
# T35 construct: also called odronextamab
# Method in brief: as §2
# ADI-26915 = target: T36, ADI-26915; assay: SPR Carterra, yeast anti-ID
# T36 construct: anti-CD3 antibody made in CHO cells, captured by anti-human Fc
# Method in brief: as §2
# ADI-48592 = target: T37, ADI-48592; assay: SPR Carterra, yeast anti-ID
# T37 construct: pH-dependent anti-CD3 antibody made in CHO cells
# Method in brief: as §2
# ADI-74965 = target: T38, ADI-74965; assay: SPR Carterra, yeast anti-ID
# T38 construct: pH-dependent anti-CD3 antibody made in CHO cells
# Method in brief: as §2
# T17 sequence (VH, as listed by the source limits assumed, chain 1 of 2): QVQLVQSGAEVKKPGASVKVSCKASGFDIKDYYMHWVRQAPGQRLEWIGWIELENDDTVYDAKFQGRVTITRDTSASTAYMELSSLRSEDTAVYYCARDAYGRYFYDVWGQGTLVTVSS
# T17 sequence (VL, as listed by the source limits assumed, chain 2 of 2): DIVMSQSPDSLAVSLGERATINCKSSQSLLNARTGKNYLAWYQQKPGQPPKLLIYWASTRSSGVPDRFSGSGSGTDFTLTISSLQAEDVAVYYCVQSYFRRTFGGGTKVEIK
# T20 sequence (VH, as listed by the source limits assumed, chain 1 of 2): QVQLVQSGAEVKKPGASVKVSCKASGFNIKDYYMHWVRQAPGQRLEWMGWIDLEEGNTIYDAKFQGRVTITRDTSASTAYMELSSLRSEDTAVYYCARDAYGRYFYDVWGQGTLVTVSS
# T20 sequence (VL, as listed by the source limits assumed, chain 2 of 2): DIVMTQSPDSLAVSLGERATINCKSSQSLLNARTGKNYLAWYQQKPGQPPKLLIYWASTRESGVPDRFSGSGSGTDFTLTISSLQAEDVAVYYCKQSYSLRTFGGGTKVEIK
# T26 sequence (VH, as listed by the source limits assumed, chain 1 of 2): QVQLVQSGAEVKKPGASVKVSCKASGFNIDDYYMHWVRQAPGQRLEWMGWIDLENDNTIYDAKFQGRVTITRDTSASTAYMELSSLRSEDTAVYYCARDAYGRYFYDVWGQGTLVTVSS
# T26 sequence (VL, as listed by the source limits assumed, chain 2 of 2): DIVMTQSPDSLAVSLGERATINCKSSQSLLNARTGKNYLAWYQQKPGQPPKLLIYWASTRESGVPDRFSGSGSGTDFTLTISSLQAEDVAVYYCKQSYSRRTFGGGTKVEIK
# T19 sequence (VH, as listed by the source limits assumed, chain 1 of 2): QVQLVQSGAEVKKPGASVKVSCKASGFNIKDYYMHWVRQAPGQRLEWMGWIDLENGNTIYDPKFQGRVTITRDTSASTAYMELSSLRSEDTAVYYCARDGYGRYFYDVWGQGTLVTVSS
# T19 sequence (VL, as listed by the source limits assumed, chain 2 of 2): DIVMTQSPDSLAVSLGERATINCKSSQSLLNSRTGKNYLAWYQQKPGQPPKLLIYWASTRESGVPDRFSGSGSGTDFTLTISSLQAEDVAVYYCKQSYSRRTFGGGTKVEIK
# T25 sequence (VH, as listed by the source, chain 1 of 2): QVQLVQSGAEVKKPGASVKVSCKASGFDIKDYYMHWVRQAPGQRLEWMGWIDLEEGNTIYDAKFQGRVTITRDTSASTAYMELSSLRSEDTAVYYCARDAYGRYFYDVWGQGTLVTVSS
# T16 sequence (VH, as listed by the source limits assumed, chain 1 of 2): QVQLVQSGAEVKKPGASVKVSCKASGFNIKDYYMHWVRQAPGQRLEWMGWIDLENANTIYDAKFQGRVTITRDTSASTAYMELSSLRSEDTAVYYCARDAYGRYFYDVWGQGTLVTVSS
# T37 sequence (VH, as listed by the source, chain 1 of 2): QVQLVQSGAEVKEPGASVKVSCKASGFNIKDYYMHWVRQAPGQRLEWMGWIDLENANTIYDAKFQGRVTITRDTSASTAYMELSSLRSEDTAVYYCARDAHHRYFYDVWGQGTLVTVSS
# T37 sequence (VL, as listed by the source, chain 2 of 2): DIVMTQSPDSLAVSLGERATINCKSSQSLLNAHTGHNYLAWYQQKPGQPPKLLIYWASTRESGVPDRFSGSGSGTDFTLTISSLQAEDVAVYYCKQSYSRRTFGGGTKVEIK
# T31 sequence (VH, as listed by the source, chain 1 of 2): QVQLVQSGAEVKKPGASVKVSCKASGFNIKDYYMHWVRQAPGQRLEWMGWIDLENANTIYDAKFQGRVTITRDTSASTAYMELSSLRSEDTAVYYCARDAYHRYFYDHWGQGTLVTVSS
# T31 sequence (VL, as listed by the source, chain 2 of 2): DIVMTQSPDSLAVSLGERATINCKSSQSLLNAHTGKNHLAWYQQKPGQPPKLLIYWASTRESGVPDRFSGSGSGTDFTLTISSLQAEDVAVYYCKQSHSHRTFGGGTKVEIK
# T24 sequence (VH, as listed by the source limits assumed, chain 1 of 2): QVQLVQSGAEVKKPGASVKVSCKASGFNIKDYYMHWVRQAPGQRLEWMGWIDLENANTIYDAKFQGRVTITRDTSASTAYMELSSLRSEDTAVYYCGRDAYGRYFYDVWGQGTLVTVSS
# T29 sequence (VH, as listed by the source, chain 1 of 2): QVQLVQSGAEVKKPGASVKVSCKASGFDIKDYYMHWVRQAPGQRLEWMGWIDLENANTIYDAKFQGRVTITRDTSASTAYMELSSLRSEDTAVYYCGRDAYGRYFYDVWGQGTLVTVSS
# T2 sequence (VH, as listed by the source limits assumed, chain 1 of 2): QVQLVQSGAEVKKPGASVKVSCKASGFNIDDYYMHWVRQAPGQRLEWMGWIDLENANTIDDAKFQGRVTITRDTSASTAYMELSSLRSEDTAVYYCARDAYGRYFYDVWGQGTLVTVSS
# T7 sequence (VH, as listed by the source limits assumed, chain 1 of 2): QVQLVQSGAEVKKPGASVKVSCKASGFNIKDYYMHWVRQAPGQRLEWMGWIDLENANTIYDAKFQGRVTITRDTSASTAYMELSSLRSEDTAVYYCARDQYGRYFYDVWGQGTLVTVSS
# T22 sequence (VH, as listed by the source, chain 1 of 2): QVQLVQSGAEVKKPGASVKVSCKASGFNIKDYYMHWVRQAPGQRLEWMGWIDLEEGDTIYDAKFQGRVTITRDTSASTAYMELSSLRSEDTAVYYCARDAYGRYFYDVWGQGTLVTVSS
# T33 sequence (VH, as listed by the source, chain 1 of 2): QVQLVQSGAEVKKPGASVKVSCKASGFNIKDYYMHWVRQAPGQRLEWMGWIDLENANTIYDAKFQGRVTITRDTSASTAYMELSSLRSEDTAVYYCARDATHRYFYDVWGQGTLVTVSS
# T33 sequence (VL, as listed by the source, chain 2 of 2): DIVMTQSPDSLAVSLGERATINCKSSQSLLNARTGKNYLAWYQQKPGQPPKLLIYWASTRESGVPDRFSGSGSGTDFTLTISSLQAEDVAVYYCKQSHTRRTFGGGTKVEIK
# T15 sequence (VH, as listed by the source, chain 1 of 2): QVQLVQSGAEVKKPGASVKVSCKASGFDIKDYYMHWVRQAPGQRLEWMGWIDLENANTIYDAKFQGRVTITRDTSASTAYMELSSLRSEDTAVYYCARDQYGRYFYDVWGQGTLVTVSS
# T12 sequence (VH, as listed by the source, chain 1 of 2): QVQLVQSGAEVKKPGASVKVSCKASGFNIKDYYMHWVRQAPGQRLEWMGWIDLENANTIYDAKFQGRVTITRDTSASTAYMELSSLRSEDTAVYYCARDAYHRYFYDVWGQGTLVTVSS
# T12 sequence (VL, as listed by the source, chain 2 of 2): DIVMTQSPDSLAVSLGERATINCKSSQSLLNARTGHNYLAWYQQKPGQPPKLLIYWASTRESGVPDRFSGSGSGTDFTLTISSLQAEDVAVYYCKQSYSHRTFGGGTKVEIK
binder,measurement,setting,value
B1,Kd,ADI-22523 IgG,0.73 nM
same,Kd,ADI-67450,69 nM
same,Kd,CTL-62223,54 nM
same,binding result,ADI-48587,binds
same,Kd,ADI-50024,18 nM
same,Kd,ADI-70326,130 nM
same,Kd,ADI-26913 IgG,20 nM
same,Kd,ADI-74966,31 nM
same,Kd,ADI-26916 IgG,84 nM
same,Kd,ADI-26906 IgG,27 nM
same,Kd,ADI-74967,22 nM
same,binding result,ADI-74968,binds
same,Kd,ADI-70330,80 nM
same,Kd,ADI-76360,43 nM
same,Kd,ADI-76357,35 nM
same,Kd,ADI-26919,25 nM
same,Kd,ADI-70327,130 nM
same,Kd,ADI-76358,91 nM
same,Kd,ADI-22523 Fab,13.5 nM
same,Kd,ADI-26921 IgG,18 nM
same,Kd,ADI-26943,22 nM
same,Kd,ADI-76362,16 nM
same,Kd,ADI-26909,13 nM
same,Kd,ADI-26920 IgG,11 nM
same,Kd,ADI-76361,19 nM
same,Kd,ADI-67447,13 nM
same,Kd,ADI-26924,17 nM
same,Kd,ADI-67445,25 nM
same,Kd,ADI-76359,8.7 nM
same,binding result,ADI-26912,no binding (tested: up to 200 nM)
same,binding result,ADI-48576,no binding (tested: up to 200 nM)
same,binding result,CTL-62228,no binding (tested: up to 200 nM)
same,binding result,ADI-48650,no binding (tested: up to 200 nM)
same,binding result,CTL-62240,no binding (tested: up to 200 nM)
same,binding result,CTL-62227,no binding (tested: up to 200 nM)
same,binding result,ADI-26915,no binding (tested: up to 200 nM)
same,binding result,ADI-48592,no binding (tested: up to 200 nM)
same,binding result,ADI-74965,no binding (tested: up to 200 nM)
